Data from the supplement of paper PMC12764529.
± gives the half width of the 95% confidence interval.

Experiments:
[1] = folding stability dG unfold from chymotrypsin proteolysis; higher = more stable
Description: (§1)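 Folding stability of de novo designed mini-proteins (<80 aa, no Cys; designed by TrROS, TrMRF, ProteinMPNN and the joint model) was measured by cDNA display proteolysis with trypsin and chymotrypsin. Each protease was used at 11 concentrations in a threefold dilution series plus a no-protease condition. K50 was inferred by Bayesian fitting of sequencing counts, and dG unfold was derived against a sequence-predicted unfolded-state K50 (Tsuboyama et al. method). Sequences shown include variable-length N-terminal GS-type padding (SAGGSAGG...) inside a display construct carrying a PA tag. Rows were kept only if the AF2 dimer inter-PAE was >15, to exclude likely homo-oligomers.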

[2] = folding stability dG unfold (combined trypsin and chymotrypsin); higher = more stable
Description: as §1

Row | Sequence | folding stability dG unfold [1] | folding stability dG unfold [2]
1 | SAGGGPMPKPVEEVVEEEEDGLRVTTRITYLPTSSTTVVRTTRTVFDPRNGRPLETEELTETVPPGSSAGGS [r16_709_JUSTAS] | -0.0368 ± 0.23 kcal/mol | -0.181 ± 0.22 kcal/mol
2 | SAGGGSKVIKVEYEKKDGGKVFIDDITDPGDSVEASIFNPKTGVKIPLPFDKLEELEDFIKEFVDKYSAGGS [r16_736_TrMRF] | -0.154 ± 0.32 kcal/mol | < -1 kcal/mol
3 | SAGGGSMYDPETGTLRDENGNFFRTEEKKIPEVVIELPIELPDNTTLVIPVKFRTEEEAEKAVEELLSAGGS [r8_440_JUSTAS] | 0.0268 ± 0.23 kcal/mol | -0.191 ± 0.33 kcal/mol
4 | SAGGGVTLTVDVRSKSGGSPEKFTLTLPVAVDPAGSADLDAARAAVAAALPPEAEVLELSLLPPDVPASAGG [r13_504_JUSTAS] | 0.346 ± 0.17 kcal/mol | < -1 kcal/mol
5 | SAGGKKEYKILITGKSIPSDGIVYLPNPNKVNIKSNNNYTYKTIPITIIADNNPEKAKKIAKELGLGSAGGS [r16_467_TrMRF] | 0.232 ± 0.34 kcal/mol | < -1 kcal/mol
6 | SAGGKKKKREIEIQIPVPDEEMKKNGMDPSEFAEELAKELQSLLPPGFEDIDLDVEPHPNGWPRIKIESAGG [r13_271_TrROS] | -0.281 ± 0.043 kcal/mol | -0.724 ± 0.3 kcal/mol
7 | SAGGKKTVEIPIWMPYDDAKNIAKEAVEEAAASNDNVTVTIEIWQWEPDPNGKPEWQPIGKAEIKVPPSAGG [r13_974_TrROS] | -0.013 ± 0.064 kcal/mol | -0.43 ± 0.19 kcal/mol
8 | SAGGKPKITITIEKLPDGTIRITITYEDGSKVEIEAKVTYDPKTNTLTIEVTIKINGKTYKITITFKSAGGS [r16_391_TrROS_Hall] | 4.4 ± 0.29 kcal/mol | 4.35 ± 0.68 kcal/mol
9 | SAGGKSKTIPIQPGDIRKVRDQLKELPDEGDNVRIHNPDNGKEREMDPDQLDDNVEKNGEPPTIHVRSAGGS [r16_263_TrROS] | -0.528 ± 0.072 kcal/mol | < -1 kcal/mol
10 | SAGGLVREAAAEAGATGVDIREEVPDPNGGTVVTVLPRPGLSPEEAAAVRARIEAAIAEREPGATVVLESAG [r5_101_JUSTAS] | 0.161 ± 0.029 kcal/mol | -0.142 ± 0.11 kcal/mol
11 | SAGGMEEIRELLREGKIDEVVERLKELGYEDVKITPIPDKPVVKIEVVRYDPVTGKPTKFTLTIPLEPSAGG [r13_359_TrMRF] | 5.27 ± 0.11 kcal/mol | 5.67 ± 0.32 kcal/mol
12 | SAGGMILIERDGRERVLEKAREAVEAEAARARAGDVEDAVLLVDLRVVDPVTGEWEELPVLARVPPASAGGS [r8_163_TrMRF] | 0.461 ± 0.076 kcal/mol | -0.0473 ± 0.11 kcal/mol
13 | SAGGMKIKIEITEIKKEGDTVYIKVKITITLPNGKVIKIEMTLRYNKETGKWEIVKIEKIEIFPLPESAGGS [r16_729_TrROS_Hall] | 5.3 ± 0.31 kcal/mol | 5.46 ± 0.49 kcal/mol
14 | SAGGMKITVTPSTDPNTPLTRETVTVPPTADPEAVAEKLRRAYPDGSTTTVTPRPDGTIVVTTTLPASAGGS [r8_255_JUSTAS] | 0.181 ± 0.083 kcal/mol | -0.291 ± 0.069 kcal/mol
15 | SAGGMKTSPIGTFPLPDPSNGALADTVTIENPKEIIKKSNKEIVKVTVTTTAPDGTPTTTDEIIIIKNSAGG [r13_735_JUSTAS] | 0.548 ± 0.066 kcal/mol | 0.148 ± 0.3 kcal/mol
16 | SAGGMNSMRLTVEFPSPEQREEKLRQIVHKHGFTIKPKEVEPNPNGRMTHTIEINMPPKVRDAFKDLSAGGS [r8_357_TrROS] | -0.152 ± 0.19 kcal/mol | -0.659 ± 0.14 kcal/mol
17 | SAGGMPKKITKLELLSETYDPLTNTYTVTVRATFDDGTEKVIELTLPRSEYEKLSKEEIKKRAIDLLLSAGG [r13_512_JUSTAS] | 5.29 ± 0.12 kcal/mol | 5.52 ± 0.34 kcal/mol
18 | SAGGMSVEVDWGETTRRLTFYDESGNPVADAEEPVLDPLTGLSTSRGVSLEELARRAGVPVELPERRSAGGS [r16_778_JUSTAS] | 0.764 ± 0.025 kcal/mol | 0.337 ± 0.058 kcal/mol
19 | SAGGMTIEVPDGFRIDGFRPFPDGRSAVLVRYKGTGKVEIFPFGDRVPEASADEPVEVEVVPIPPELLSAGG [r13_173_TrMRF] | 0.155 ± 0.21 kcal/mol | -0.353 ± 0.14 kcal/mol
20 | SAGGMTIPLEFEFESEEEAKEKAEEIAEELAKSFPEYEVEVKIEIKPVKDPNSDTTKWRVKMEITVGPSAGG [r13_545_JUSTAS] | 4.38 ± 0.2 kcal/mol | 4.56 ± 0.31 kcal/mol
